Experimental data taken from paper PMC4108472, “Characterization of a Novel BCHE “Silent” Allele: Point Mutation (p.Val204Asp) Causes Loss of Activity and Prolonged Apnea with Suxamethonium” (PLoS ONE, 2014).
Where “and” joins values, the source holds several entries; their conditions need not be identical. Equal values may be shown once.

Target: the molecule itself
Test: native gel or EMSA; nondenaturing gradient gel (4–30%) of plasma samples (5 µL/lane), bands stained for BChE activity with BTC as the substrate

B1: Butyrylcholinesterase (usual, wild-type) of human plasma (enzyme, human (endogenous in plasma), UniProt P06276 29-602, looked up)
chain: EDDIIIATKNGKVRGMNLTVFGGTVTAFLGIPYAQPPLGRLRFKKPQSLTKWSDIWNATKYANSCCQNIDQSFPGFHGSEMWNPNTDLSEDCLYLNVWIPAPKPKNATVLIWIYGGGFQTGTSSLHVYDGKFLARVERVIVVSMNYRVGALGFLALPGNPEAPGNMGLFDQQLALQWVQKNIAAFGGNPKSVTLFGESAGAASVSLHLLSPGSHSLFTRAILQSGSFNAPWAVTSLYEARNRTLNLAKLTGCSRENETEIIKCLRNKDPQEILLNEAFVVPYGTPLSVNFGPTVDGDFLTDMPDILLELGQFKKTQILVGVNKDEGTAFLVYGAPGFSKDNNSIITRKEFQEGLKIFFPGVSEFGKESILFHYTDWVDDQRPENYREALGDVVGDYNFICPALEFTKKFSEWGNNAFFYYFEHRSSKLPWPEWMGVMHGYEIEFVFGLPLERRDNYTKAEEILSRSIVKRWANFAKYGNPNETQNNSTSWPVFKSTEQKYLTLNTESTRIMTKLRAQQCRFWTSFFPKVLEMTGNIDEAEWEWKAGFHRWNNYMMDWKNQFNDYTSKKESCVGL
notes: Butyrylcholinesterase, human, Swissprot P06276, as it circulates in plasma; Subunit of the plasma enzyme; Plasma of the heterozygous family members also holds variant subunits (p.Val204Asp; p.Asp70Gly-p.Ala539Thr); also called BChE; pseudocholinesterase; source: endogenous, human plasma (genotype UU control and family members' plasma)
  stoichiometry N: 4 and 2
